Tests used:
[1] = molecular target: T1, native bovine serum albumin (bovine, UniProt P02769 25-607); test: ELISA (data not shown)
T1 construct: Control antigen; also called BSA; native BSA

[2] = molecular target: T2, free radical modified BSA (bovine, UniProt P02769 25-607, modified as CII (OH, HOCl, ONOO or 2M ribose); residues not stated); test: ELISA (data not shown)
T2 construct: Written as printed, as one entry

[3] = molecular target: T3, native non-modified collagen type II (CII) (bovine, UniProt P02459 201-1214); test: ELISA, purified scFv on coated antigen
T3 construct: also called native CII
T3 sequence (P02459 201-1214): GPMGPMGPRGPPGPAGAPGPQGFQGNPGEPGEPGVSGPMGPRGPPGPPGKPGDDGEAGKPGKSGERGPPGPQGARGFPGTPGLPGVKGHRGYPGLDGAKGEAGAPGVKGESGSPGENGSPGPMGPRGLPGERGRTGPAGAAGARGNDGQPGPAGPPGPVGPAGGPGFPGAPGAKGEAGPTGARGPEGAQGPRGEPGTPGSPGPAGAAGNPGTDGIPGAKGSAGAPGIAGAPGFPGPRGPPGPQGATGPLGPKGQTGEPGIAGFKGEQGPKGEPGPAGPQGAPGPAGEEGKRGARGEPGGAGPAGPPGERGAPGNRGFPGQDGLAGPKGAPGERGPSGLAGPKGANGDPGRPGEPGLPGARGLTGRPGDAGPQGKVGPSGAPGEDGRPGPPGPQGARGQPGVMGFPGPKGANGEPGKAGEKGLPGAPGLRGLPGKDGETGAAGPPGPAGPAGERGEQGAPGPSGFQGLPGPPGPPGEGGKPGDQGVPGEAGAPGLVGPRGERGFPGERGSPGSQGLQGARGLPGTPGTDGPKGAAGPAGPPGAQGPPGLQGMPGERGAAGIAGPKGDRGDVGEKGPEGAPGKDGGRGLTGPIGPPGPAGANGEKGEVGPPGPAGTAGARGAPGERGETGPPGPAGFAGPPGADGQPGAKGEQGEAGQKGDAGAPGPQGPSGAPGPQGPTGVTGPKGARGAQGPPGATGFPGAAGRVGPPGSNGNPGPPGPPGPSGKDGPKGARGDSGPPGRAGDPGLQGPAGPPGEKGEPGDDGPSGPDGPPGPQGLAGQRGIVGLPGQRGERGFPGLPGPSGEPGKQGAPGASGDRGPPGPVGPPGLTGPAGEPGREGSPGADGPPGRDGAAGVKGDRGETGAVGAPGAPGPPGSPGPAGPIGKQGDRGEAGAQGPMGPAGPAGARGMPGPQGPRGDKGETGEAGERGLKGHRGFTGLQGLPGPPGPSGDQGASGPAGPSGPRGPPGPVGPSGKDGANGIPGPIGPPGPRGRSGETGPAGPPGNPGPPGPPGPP
Experimental: (§1) Screening for positive anti-modified CII phage clones was first performed by enzyme-linked immunosorbent assay (ELISA), as previously described (Harrison J. L, 1996). Microtiter plate (Nunc, Paisley, UK) wells were coated with 10 μg/ml native or modified CII and incubated with 100 μl phage suspension for 90 minutes. In addition, native and modified BSA were used as negative control. After removal of the supernatants, the amount of bound phage was determined using peroxidase-labeled anti-M13 antibodies (GE Healthcare: Ltd, Little Chalfont, Buckinghamshire) and developed by using 100 mM 3,3′5,5′ tetramethylbenzidine (TMB) as substrate. The reaction was monitored in an ELISA reader at 450 nm with a reference wavelength of 650 nm using GENios plate reader (TECAN, Theale Court, Reading UK) and Magellan software (TECAN, Theale Court, Reading UK)
(§2) The reactive phage clones obtained from E. coli TG-1 bacteria were used to infect E. coli HB2151 non-suppressor bacterial strain to obtain soluble scFv. […] Binding of purified scFv to modified CII was first analyzed by ELISA as above except that mouse anti-myc tag antibody (Santa Cruz Biotechnology, INC, Wembley, UK) followed by anti-mouse-HRP conjugate (Sigma, Dorset, UK) were used to probe bound scFv.

[4] = molecular target: T4, HOCl modified CII (bovine, UniProt P02459 201-1214, modified with HOCl; residues not stated); test: ELISA, purified scFv on coated antigen
T4 construct: also called HOCl-CII; HOCl-Collagen II
T4 sequence (P02459 201-1214): as above
Experimental: as §1, §2

[5] = molecular target: T5, ribose-modified CII (bovine, UniProt P02459 201-1214, glycated with 2M ribose, overnight at 37 C; residues not stated); test: ELISA, purified scFv on coated antigen
T5 construct: also called Ribose-CII; glycated CII
T5 sequence (P02459 201-1214): as above
Experimental: as §1, §2

[6] = molecular target: T6, peroxynitrated CII (bovine, UniProt P02459 201-1214, modified with peroxynitrite (ONOO); residues not stated); test: ELISA, purified scFv on coated antigen
T6 construct: also called CII modified with ONOO; peroxynitrite-modified CII
T6 sequence (P02459 201-1214): as above
Experimental: as §1, §2

Measured: binding result

T2 sequence (P02769 25-607 limits assumed): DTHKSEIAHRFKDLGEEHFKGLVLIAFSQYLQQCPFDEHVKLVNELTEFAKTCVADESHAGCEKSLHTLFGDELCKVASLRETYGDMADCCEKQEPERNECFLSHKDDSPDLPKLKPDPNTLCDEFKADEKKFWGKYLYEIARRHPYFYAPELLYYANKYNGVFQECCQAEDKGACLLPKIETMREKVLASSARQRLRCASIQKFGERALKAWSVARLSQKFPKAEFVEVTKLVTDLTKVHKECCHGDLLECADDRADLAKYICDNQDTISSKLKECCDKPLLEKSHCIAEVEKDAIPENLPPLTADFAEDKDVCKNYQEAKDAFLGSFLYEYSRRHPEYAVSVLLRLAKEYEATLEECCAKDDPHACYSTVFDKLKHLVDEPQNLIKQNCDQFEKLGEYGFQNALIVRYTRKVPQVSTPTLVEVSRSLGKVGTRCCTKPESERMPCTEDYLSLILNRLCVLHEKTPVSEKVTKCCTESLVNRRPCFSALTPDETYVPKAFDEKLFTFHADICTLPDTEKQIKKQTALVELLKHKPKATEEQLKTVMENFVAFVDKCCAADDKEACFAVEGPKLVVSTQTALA
T1 sequence (P02769 25-607 limits assumed): as above

B1: scFv 12E (scFv, not shown: small tags and cut ends)
scFv: EVQLLESGGGLVQPGGSLRLSCAASGFTFSSYAMSWVRQAPGKGLEWVSSINDSGTTTYYADSVKGRFTISRDNSKNTLYLQMNSLRAEDTAVYYCAKNYSAFDYWGQGTLVTVSSGGGGSGGGGSGGGGSTDIQMTQSPSSLSASVGDRVTITCRASQSISSYLNWYQQKPGKAPKLLIYAASDLQSGVPSRFSGSGSGTDFTLTISSLQPEDFATYYCQQSDSAPTTFGQGTKVEIKR
notes: Purified soluble scFv; also called clone 12E
no binding: all assays above

B2: scFv 1-11E (scFv, not shown: large carriers; small tags and cut ends)
scFv: EVQLLESGGGLVQPGGSLRLSCAASGFTFSSYAMSWVRQAPGKGLEWVSSIDDSGATTYYADSVKGRFTISRDNSKNTLYLQMNSLRAEDTAVYYCAKNYSSFDYWGQGTLVTVSSGGGGSGGGGSGGGGSTDIQMTQSPSSLSASVGDRVTITCRASQSISSYLNWYQQKPGKAPKLLIYYASSLQSGVPSRFSGSGSGTDFTLTISSLQPEDFATYYCQQAANYPTTFGQGTKVEIK
notes: its first MA and last DI may come from cloning into the fusion; also called clone 1-11E; 1-2F
no binding: [1] | [2]

B3: scFv 6-11D (scFv, not shown: small tags and cut ends)
scFv: EVQLLESGGGLVQPGGSLRLSCAASGFTFSSYAMSWVRQAPGKGLEWVSSIDTGGSYTDYADSVKGRFTISRDNSKNTLYLQMNSLRAEDTAVYYCAKSYTTFDYWGQGTLVTVSSGGGGSGGGGSGGGGSTDIQMTQSPSSLSASVGDRVTITCRASQSISSYLNWYQQKPGKAPKLLIYSASYLQSGVPSRFSGSGSGTDFTLTISSLQPEDFATYYCQQGSNSPTTFGQGTKVEIKR
notes: also called clone 6-11D; 4-5H
no binding: [1] | [2]
